Target: GH1 β-glucosidase from Spodoptera frugiperda (Sfβgly), wild-type (Spodoptera frugiperda)
Test: P100 buffer, pH 6, 5°C, protein sample 3 (SEC)

Kd: 5.5 µM
B1: GH1 β-glucosidase from Spodoptera frugiperda (Sfβgly), wild-type (enzyme)
chain: QQRRFPDDFLFGTATASYQIEGAWDEDGKGENIWDYMVHNTPEVIRDLSNGDIAADSYHNYKRDVEMMRELGLDAYRFSLSWARILPTGMANEVNPAGIAFYNNYIDEMLKYNITPLITLYHWDLPQKLQELGGFANPLISDWFEDYARVVFENFGDRVKMFITFNEPREICFEGYGSATKAPILNATAMGAYLCAKNLVTAHAKAYYLYDREFRPVQGGQCGITISVNWFGPATPTPEDEMAAELRRQGEWGIYAHPIFSAEGGFPKELSDKIAEKSAQQGYPWSRLPEFTEEEKAFVRGTSDFFGVNHYTAFLVSATERKGPYPVPSLLDDVDTGSWADDSWLKSASAWLTLAPNSIHTALTHLNNLYNKPVFYITENGWSTDESRENSLIDDDRIQYYRASMESLLNCLDDGINLKGYMAWSLMDNFEWMEGYIERFGLYEVDFSDPARTRTPRKAAFVYKHIIKHRVVDYEYEPETMVMTIDEGH
modifications: Monomer given, self-associates to a C2 homodimer. Limits by convention from the 5CG0 entity; paper numbering = entity + 20 (precursor numbering) Monomer given, self-associates to a C2 homodimer. Limits by convention from the 5CG0 entity; paper numbering = entity + 20 (precursor numbering)

Source: article PMC12368724 (2025)
